From patent US20260242478A1 (published 2026)

B1: Phage-2263 (peptide)
peptide: YSHLCIPSWMCSWT
B2: Phage-2264 (peptide)
peptide: ALKWCIPDWMCSQP
B3: Phage-2265 (peptide)
peptide: GDRWCIPEWMCGVI
B4: Phage-2266 (peptide)
peptide: EMHWCIPAWMCPDG
B5: Phage-2267 (peptide)
peptide: ITKLCTPPWMCTMV
B6: Phage-2268 (peptide)
peptide: AENWCRPSWMCEGF
B7: Phage-2269 (peptide)
peptide: FAKWCTPQWMCSAM
B8: Phage-2270 (peptide)
peptide: VVKWCSPPWMCEYF
B9: Phage-2271 (peptide)
peptide: HQNWCIPAWMCHGM
B10: Phage-2272 (peptide)
peptide: WDMRCTPIWMCEGF
B11: Phage-2273 (peptide)
peptide: GINWCIPPWMCQSE
B12: Phage-2274 (peptide)
peptide: YTNWCIPSWMCEGF
B13: Phage-2275 (peptide)
peptide: GEKWCIPSWMCEIT
B14: Phage-2276 (peptide)
peptide: LEKWCTPPWMCMGF
B15: Phage-2277 (peptide)
peptide: IIKWCKPLWMCESI
B16: Phage-2278 (peptide)
peptide: IEKWCIPQWMCSAA
B17: Phage-2279 (peptide)
peptide: IPRMCTPAWMCEWS
B18: Phage-2280 (peptide)
peptide: FAILCKPMWMCEHI
B19: Phage-2281 (peptide)
peptide: MPKWCIPTWMCEST
B20: Phage-2282 (peptide)
peptide: AVKLCTPMWMCMGF

target: T1, Anti-PSMA Fab (SEQ ID NOs: 19, 20); assay: phage binding ELISA; biotinylated PSMA Fab on neutravidin plate, clonal phage supernatant, anti-M13 HRP detection;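 note: wells were preincubated with blocking buffer either containing PSMA antigen or without it before crude phage supernatant was added, briefly incubated, then washed prior to detection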
T1 construct: also called 006 PSMA Fab
Method: (§1) Clonal phage were harvested as crude supernatants and screened via standard ELISAs. […] Prior to the addition of clonal phage. wells were incubated with blocking buffer and PSMA antigen or blocking buffer alone. Without washing or aspirating, clonal phage supernatants were then added to the wells and incubated for a short time. Wells were then washed followed by detection of bound phage using a horse radish conjugated anti-M13 antibody.

Point of comparison: B2, “Anti-PSMA Fab (SEQ ID NOs: 19, 20) signal” value 1.54. Against it:
- B1 — the same, 1.54
- B3 — the same, 1.54
- B4 — the same, 1.54
- B5 — lower, 1.53

target: T2, Anti-PSMA Fab (SEQ ID NOs: 19, 20); assay: phage binding ELISA; Fab-coated wells pre-incubated with PSMA antigen as competitor
T2 construct: Biotinylated and captured on neutravidin coated plates in the phage ELISA; also called 006 PSMA Fab
Method: as §1

Point of comparison: B17, “Anti-PSMA Fab signal in the presence of PSMA” value 0.0738. Against it:
- B6 — lower, 0.0717
- B7 — higher, 0.225
- B8 — higher, 0.0886
- B9 — lower, 0.0592
- B10 — higher, 0.0882
- B11 — higher, 0.119
- B12 — higher, 0.0789
- B13 — higher, 0.0796
- B14 — higher, 0.0948
- B15 — higher, 0.104
- B16 — higher, 0.0739
- B18 — higher, 0.0895
- B19 — lower, 0.054
- B20 — higher, 0.0984

target: T2, Anti-PSMA Fab (SEQ ID NOs: 19, 20); assay: phage binding ELISA; biotinylated Fab on neutravidin plate, clonal phage detected with anti-M13 HRP
Method: as §1

Point of comparison: B10, “Anti-PSMA Fab (SEQ ID NOs: 19, 20) signal” value 1.52. Against it:
- B6 — higher, 1.53
- B7 — higher, 1.53
- B8 — higher, 1.53
- B9 — higher, 1.53
- B11 — the same, 1.52
- B12 — the same, 1.52
- B13 — the same, 1.52
- B14 — the same, 1.52
- B15 — the same, 1.52
- B16 — the same, 1.52
- B17 — lower, 1.51
- B18 — lower, 1.51
- B19 — lower, 1.51
- B20 — lower, 1.51

target: T1, Anti-PSMA Fab (SEQ ID NOs: 19, 20); assay: phage binding ELISA; PSMA Fab on plate pre-incubated with PSMA antigen as competitor, anti-M13 HRP detection;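 note: crude clonal phage supernatants added without washing to wells preincubated with PSMA in blocking buffer, compared with wells receiving blocking buffer only, then bound phage detected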
Method: as §1

Point of comparison: B3, “Anti-PSMA Fab signal in the presence of PSMA” value 0.0664. Against it:
- B1 — higher, 0.111
- B2 — higher, 0.0749
- B4 — lower, 0.0572
- B5 — lower, 0.0558
